Source: the DeepSol protein solubility set

Experiment: soluble on expression in E. coli; label from the status in PepcDB or PDB records

Row | Sequence | soluble on expression in E. coli
1 | MKSGVIPSSAVGQKINEWYRYIRTFSVPDAEVLKAEIQQELKHMQHDSNLLLYYSLMEFRHQLMLDYLEPLEKLNIEDQPSLSELSRNIDSNQADLKGLLDYYVNFFRGMYEFDKREFISAITYYKQAEKKLSFVADHIERAEFYFKIAEAYYYMKQTYFSLINIKNAYEIYVEQETYNVRIIQCHFVFGVNLMDERNFEQAARHFKLALNMAQAEQKAQLVGRAYYNLGLCYYNQDLLDPAIDYFEKAVSTFESSRIVNSLPQAYFLITLIYYKQGKHDKASEYHKRGYEYAKETDDADYAVKFEFLQSLYLDQPNEEGIERCFQYLKNKNMYADIEDLALEVAKYYYEQKWFKLSASYFLQVEEARKQIQRSEGLYEIEI | soluble
2 | MGAGESSMALEKHLFDLKFAAKQLEKNAQRCEKDEKVEKDKLTAAIKKGNKEVAQVHAENAIRKKNEAVNYIKMAARIDAVAARVQTAATQKRVTASMSGVVKAMESAMKSMNLEKVQQLMDRFERDFEDLDVTTKTMEKTMDGTTVLNAPKSQVDALIAEAADKAGIELNQELPSNVPTALPTGTQAVSEDKDLTERLAALRNM | not soluble
3 | LTCESVRSTDSPHFAMLDALYARAFPCHEQRESEAKRQALSHPRYALEAWFDEGVFVGLSGCWQFAGYGYIEHLAIDDTLRSRGYGKQLLAQILTRAPLTILEIDPLTTAIAHKRLRFYQSMGFHANPWAHHHPSYHQGIADHELLVLSYPQP | not soluble
4 | MGSDKIHHHHHHMFSYEVIRQFTETEHHLYRYIMDNRDKVMFMRVRELSEVTHVSPASIVRFTRKLGCEGFSEFKVKLKQEATREVKKKTADTVEVLEEFFERTMNRDYDHVLDAAAEIINEADLVVFFGIGTSGILAEYGSRFFSNMKKRTFYIKDPFYPNPGEQFKNKAVMIILSVSGETDQVLEQAQNMQQYGSRIISITNTSHNTLAGLSDVNIPYYVTQEMVDKTNITTQIPVLFLLEAMAKKNYNQEQEE | not soluble
5 | MGSDKIHHHHHHMSDASKPDSNEVREIRINPVVPGESVLVATARSMRPKKAEELAPRDTRKHVETCPFCRGNEHKTPPAILTWPDTGDWQIRMVENLYPVLGDDRAQAGFTFGLQQTIDGYGRHEVIIDHSEHGIAVQDMAETHLAALFGVYQTRMRQLFDSDERLKYVLVFKNFGPAAGASIPHTHSQVIAMPVVPENVDAEVRNSATHYAKHHHCIFCALIDEALTFEATIYDRNSGAVRRKINVGQYVVERGEKFIAIKPFASRYEWEVHILPLAHQADFLDVRGEDLADLARVMKRTMARLDAVIGGAQYNFFLHSVPHDAQQATHAPSYHWHLEICPRTSIPTGFELGSGLFVNTINPEEAAERLRSVELPAR | not soluble
6 | MGSDKIHHHHHHMDTNKLIPLLSDMAIFVTVIEQGNFSKAAKKLGVTPSAVSRQISRLEDALGIKLLQRTTRQLALTESGKLTFDYCKQMVESADQAVNASRSATSTVSGLLRVSAPKSLANKVLRPLFVEFLKCYPDIQLHLKVTDRILDPIHDGVDFLIHINDYPIEALVNIKIGRVEQVLCASPEFLQSHTPPTHPDDLKYLSCICLGENMVDNRWRFINENQQTTVQVAGSYLLNHSDMRRDAIEQGFGIGPLPDYIAQQGIKTGKLIPLLEGWQLTGSYQGDICLQYVQSKYLPNKNRVFIDFMKQKLLIIQPDS | not soluble
7 | MEGDGSDPEPPDAGEDSKSENGENAPIYCICRKPDINCFMIGCDNCNEWFHGDCIRITEKMAKAIREWYCRECREKDPKLEIRYRHKKSRERDGNERDSSEPRDEGGGRKRPVPDPDLQRRAGSGTGVGAMLARGSASPHKSSPQPLVATPSQHHQQQQQQIKRSARMCGECEACRRTEDCGHCDFCRDMKKFGGPNKIRQKCRLRQCQLRARESYKYFPSSLSPVTPSESLPRPRRPLPTQQQPQPSQKLGRIREDEGAVASSTVKEPPEATATPEPLSDEDLPLDPDLYQDFCAGAFDDHGLPWMSDTEESPFLDPALRKRAVKVKHVKRREKKSEKKVMERKEERYKRHRQKQKHKDKWKHPERADAKDPASLPQCLGPGCVRPAQPSSKYCSDDCGMKLAANRIYEILPQRIQQWQQSPCIAEEHGKKLLERIRREQQSARTRLQEMERRFHELEAIILRAKQQAVREDEESNEGDSDDTDLQIFCVSCGHPINPRVALRHMERCYAKYESQTSFGSMYPTRIEGATRLFCDVYNPQSKTYCKRLQVLCPEHSRDPKVPADEVCGCPLVRDVFELTGDFCRLPKRQCNRHYCWEKLRRAEVDLERVRVWYKLDELFEQERNVRTAMTNRAGLLALMLHQTIQHDPLTTDLRSSADR | soluble
8 | MGSDKIHHHHHHMIRGLYIAVSAMITNQQKQNVVVNNLANMDTNGYKSKQLLTKSFDELKLEGYNNYANGTKQKQIIGDISPGISMDETITNFNQGPIKTTDNKMDVAIQGKGFFLVSDAAGNQFYTRNGNFRTDNQGDLITSEGYYVLGTNTATGAVGHINVGNQKFEVAKDNTISLDGNAMYKFNIVDFNNYNNLKKEGDNLYSGGGAMKVNNALTIQSAIESSNVDMVSEINNMMTISREYEANQKIIQAMDSKLAKIASEIGSVR | not soluble
9 | MSLLLIGNGRLITRDAQNHFFENGCVAIDGQVVKQVGTTEELKQAYPEATFIDAKGGVIMPGFINMHNHIYSTFARGLSLTNYHPKNFMDILVDQWWRIDRALTLEDTYQSGKVAYLDSIRNGVTTVFDHHASYGEITGSLTQLSNAADELGIRTCLCYEVSDRDGEQKMREAVQENAAFIKASSLRNDDMQKAMMGMHAAFTLSDASLELCAANTPDGIGYHIHIAEDLADVHDSLKKYGKPIVNRLFDLGILGKQTMAGHCIHIGPHEMELLRDTDTMVVTNPESNMGNAVGCPPAMRMFNEYGILMGLGTDGYTNDVTESYKVGNVIHKHHLADPNAAWAEIPTMLFDNNPQMANRYFKTKLGVLEPNAAADVIIVDYHGPTPMTKENYNMHILFGMNGGMVTDTVINGEIRMRNREVQGIDEEKVWHDAQTQAQSFWKRVNQEGHHHHHH | soluble
10 | MGSDKIHHHHHHMSLRKNLALGSSTVLLTAVLSGCVSLDERSTDTSTENVTTVTATLTSTAAAEPTTRTTVQSATEASTTAPVQCNLDPRTSDFGPYLAQSRTPVGELAGSADSVVQVPDWFYHFQMGDNGYDSCSKLSYVVLNGSNGDAERSTGTGAAIADVVVLFIDGHMVARPAPFEMKTVESVTRVSDSEIQVVYGHAGRSTAEGVTDYFTFNFFVDNGVLSGRGDLPEHIDTHMRLYLL | not soluble
11 | MAHHHHHHMNRENLEELKILNLKNDKQPIYNFRCKHCNYVLFNDNEIIKHDFKISKIKKNYGNSCTSIFIEKKEWILTENKMKGVLNCPNCNIKLGKWSWTGICCSCGYLQIPAFMINSSNVDRMNISKTV | soluble
12 | RDPIGYEKMFSKLRGGIVHARETAKRIAASPIVEQEGELCFTLYNAVGDSVLTSTGIIIHVGTMGSAIKYMVENNWEDNPGINDKDIFTNNDCAIGNVHPCDIMTLVPIFHDEKLIGWVGGVTHVIDTGSVTPGSMSTGQVQRFGDGYMITCRKTGANDESFKDWLHESQRSVRTPKYWILDERTRIAGCHMIRDLVMEVIKEDGIDSYMRFIDEVIEEGRRGLISRIKSMTIPGKYRKVAFVDVPYAHKDIGVCSEFAKLDTIMHSPVEITINKDATWKLDFDGASRWGWHSFNCNQVSFTSGIWVMMTQTLIPTSRINDGAYFATQFRLKKGTWMNPDDRRTGHAYAWHFLVSGWSALWRGLSQAYYSRGYLEEVNSGNANTSNWLQGGGINQDGEIHAVNSFETSSCGTGACAIKDGLNHAAAIWNPEGDMGDVEIWEMAEPLLYLGRNVKANTGGYGKYRGGNGFETLRMVWGAHDWTMFFMGNGYMNSDWGMMGGYPAASGYRFEAHNTDLKNRIKNNASLPLGGDFNPTDRDYEKHISHASQVKRDKQCITTENCFDNYDLYLNYIKGGPGFGDPIERDLNAILEDLNSKQL | not soluble
13 | VTAEEHVESEPLTKRDFEALARFRFGIRRYVRFSEDTVRDHGLTPQHYQLLLALKGFPGREWATMRELADRLQLRHHSVVELVDRAQKQGLVERAPHPSDARAVRVELTEHGQLILARLSAMHRDELLRLGPALELPIWDDPPQDR | not soluble
14 | KQKGNYGEYLADDNLINNPKLKEAGYDLERIGGKVPTSPDDKITKGIDGIYINKNPNSNIKYVIDEAKFGKAGLSAKTRDGKQMSDSWLMGSRSRDNRILKALNNNEELADDILEALANNQVERILSKVDINGEVTTYRLDSEGNIIGLWP | soluble
